Measured values published in US20250155429A1.

Tests used:
[1] = biological target: CD45; experiment: flow cytometry of PBMCs, co-staining in the BSA series, 0% BSA; left quadrants 0.00 and 0.01
[2] = biological target: CD45; experiment: flow cytometry of PBMCs, co-staining in the BSA series, 10% BSA; left quadrants 0.00 and 0.01
[3] = biological target: CD45; experiment: flow cytometry of PBMCs, co-staining in the BSA series, 20% BSA; left quadrants 0.00 and 0.00
[4] = biological target: CD45; experiment: flow cytometry of PBMCs stained with four mouse IgG1 primaries, each pre-labelled with an anti-mouse IgG1 linker; plot CD3 against CD45: upper left 0.03, lower left 0.14
[5] = biological target: CD45; experiment: flow cytometry of PBMCs stained at once with mouse IgG1 anti-CD45 (linker-488, FITC), mouse IgG2a anti-CD3 (linker-555, PE), mouse IgG2b anti-CD4 (linker-647, APC); left plot: Q5 0, Q8 0.21
[6] = biological target: CD8; experiment: same staining; plot CD8 against CD4: upper right 0.30, lower left 11.12
[7] = biological target: CD8; experiment: same staining; plot CD8 against CD3, all events CD3-positive: upper left 0.00, lower left 0.00, lower right 71.27
[8] = biological target: CD3 (Homo sapiens (Human)) (UniProt P07766); experiment: flow cytometry of PBMCs, FSC-H against APC-A, No Quencher; Q4 100.0

CD45 (65109-1-Ig) (antibody)
% of cells, lower right quadrant (CD45-positive, CD3-negative) [1]: 47% | % of cells, upper right quadrant (CD45-positive, CD3-positive) [1]: 52.9% | % of cells, lower right quadrant (CD45-positive, CD3-negative) [2]: 46.1% | % of cells, upper right quadrant (CD45-positive, CD3-positive) [2]: 53.9% | % of cells, lower right quadrant (CD45-positive, CD3-negative) [3]: 45.7% | % of cells, upper right quadrant (CD45-positive, CD3-positive) [3]: 54.3% | % of cells, lower right quadrant (CD45-positive, CD3-negative) [4]: 28.5% | % of cells, upper right quadrant (CD3+/CD45+) [4]: 71.4% | Q6 (% of cells, FITC-positive and PE-positive) [5]: 55.4% | Q7 (% of cells, FITC-positive and PE-negative) [5]: 44.4%

CD8 (65144-1-Ig) (antibody)
% of cells, upper left quadrant (CD8-positive, CD4-negative) [6]: 28.4% | % of cells, upper right quadrant (CD3+/CD8+) [7]: 28.7%

mouse IgG1 isotype control (antibody)
Q3 (% of cells, APC-positive) [8]: 0.025%
